# Measured values reported in patent US20060110789A1, “Methods to mediate polyketide synthase module effectiveness” (priority 2002, published 2006).
# “And” between values parts separate entries of the source, which are not always exact repeats. Identical values can stand only once.
# Key:
# diketide thioester = experiment: Kinetic constants kcat and KM of single module constructs converting diketide to triketide; assay type: biochemical
# Protocol: (§1) A cell-free system, tested for the ability to convert the cysteamine thioester of 2S,3R-2-methyl-3-hydroxypentanoic acid (compound 2 in FIG. 2), consisted of 0.5-10 mM concentration of the thioester, 2.5 mM ^14C-labeled methylmalonyl CoA and 100 pmoles of purified protein prepared in Example 1 in a 100 μl reaction. In some cases, 1 mM of NADPH was added; this was done in assay mixtures containing (M2+TE), (M5+TE) and (M6+TE) proteins. The protein was, in each case, a single module of the DEBS PKS fused to the thioesterase (TE) termination region of module 6.
# The various constructs which are successful in converting diketide to triketide were then evaluated for the kinetic constants kcat and KM. […] This is evidently due to the absence of beta-carbonyl modifying enzymes in module 3 as verified by the fact that removal of NADPH, (which is required for the activity of such modules) from the reaction mixture of (N-ERL-M6+TE) also results in a lowering of the kcat.
# [1] = system: cysteamine thioester of 2S,3R-2-methyl-3-hydroxypentanoic acid (diketide); experiment: Cell-free synthesis of triketides from diketide thioester by single module constructs; assay type: biochemical; conditions: 0.5-10 mM diketide thioester, 2.5 mM 14C-methylmalonyl CoA, 100 pmoles protein, 30 minutes, TLC
# Protocol: as §1
# The reaction mixtures were quenched and extracted by ethyl acetate and separated by thin-layer chromatography (TLC) to discern the formation of the triketide ketolactone 3 and triketide lactone 4 (both shown in FIG. 2) after 30 minutes.
# The constructs for (M2+TE) and (M6+TE) were modified by deleting the sequences encoding the amino acids upstream of the KS catalytic domain and substituting the first 39 amino acids from (M5+TE) containing the N-terminal portion of the interpolypeptide linker (N-ERL). The relevant constructs were prepared by replacing the BsaBI-EcoRI fragment in pRSG46 by the corresponding fragment from pCK4 to obtain N-ERL-M2+TE), in plasmid pRSG64, or from pJRJ10 to obtain (N-ERL-M6+TE) in plasmid pRSG54. These constructs yield modules which contain the upstream 39 amino acids from module 5.
# [2] = system: M3+TE or (5)M3+TE (DEBS module 3 fused to thioesterase); experiment: Coincubation of donor module 2 proteins with module 3+TE: tetraketide lactone 2 formation and KD; assay type: biochemical; conditions: acceptor (5)M3+TE, matched M4-M5 linker pair, saturation curve
# Protocol: Assays of M2 and M3+TE contained 10 μM M2 and […] M3+TE, 7 mM NDK, 0.5 mM ^14C-methylmalonyl-CoA (specific activity reduced to 3.4 mCi/mmol), 4 mM NADPH, 440 mM sodium phosphate, 1 mM EDTA, 2.5 mM DTT, and 20% w/v glycerol, pH 7.2, in 70 μL. Assays of M2(4) and (5)M3+TE were identical, except they contained 0.5 μM M2(4), 0.5-5 μM (5)M3+TE, and 0.4 mM ^14C-methylmalonyl-CoA (specific activity reduced to 6.2 mCi/mmol). The concentration of M2(4) was limiting in order to facilitate its saturation with (5)M3+TE. The reactions were prewarmed at 30° C. and initiated by the addition of the methylmalonyl-CoA. As described above, 20 μL aliquots were removed at various time points and processed. […]
# For tetraketide formation, the rate of production of tetaketide was recorded for varying concentrations of M3+TE [or (5)M3+TE] at a fixed concentration of M2 [or M2(4)] and saturating concentrations of substrates. By fitting the rate dependence of tetraketide to a saturation curve, the maximal velocity (vmax) of tetraketide production was determined, and was assumed to represent the case where every M2 homodimer was productively associated with an M3+TE homodimer. Thus, the affinity of this protein-protein interaction could be calculated from the rate v=kcat[M2−M3] […]
# [3] = system: N-acetylcysteamine thioester of (2S,3R)-2-methyl-3-hydroxypentanoic acid diketide (NDK); experiment: In vitro polyketide production assays of individual modules with NDK (kinetic analysis); assay type: biochemical; conditions: NDK 1-10 mM, 1.0 μM protein, 30° C; M2 and M2(4) only approximate (triketide lactone 3)
# Protocol: In Vitro Polyketide Production Assays of individual modules contained 1.0 μM protein, 1-10 mM N-acetylcysteamine thioester of the “natural” (2S,3R)-2-methyl-3-hydroxypentanoic acid diketide (NDK) (1), 4 mM NADPH, 440 mM sodium phosphate, 1 mM EDTA, 2.5 mM dithiothreitol (DTT), and 20% w/v glycerol, pH 7.2, in 80 μL. Reactions with M2 or M2(4) included 0.3 mM ^14C-methylmalonyl-CoA (specific activity adjusted to 10.4 mCi/mmol), and those with M3+TE or (5)M3+TE included 0.5 mM ^14C-methylmalonyl-CoA (specific activity reduced to 1.1 mCi/mmol). [M2(4) refers to a derivative of M2 in which the C-terminal linker has been replaced with its counterpart from module 4, whereas (5)M3 refers to a derivative of M3 in which the N-terminal linker has been replaced with its counterpart from module 5 (see FIG. 4).] […] Product formation was quantified by comparison with standards of the labeled methylmalonyl-CoA. […]
# Kinetic Analysis. For individual modules, the steady-state turnover number was determined from the time course of triketide formation, normalized to the concentration of protein. The dependence of the rate on substrate concentration was measured by varying the concentration of NDK while maintaining saturating levels of NADPH and methylmalonyl-CoA.
# [4] = biological target: M3+TE or (5)M3+TE (DEBS module 3 fused to thioesterase); conditions: with M3+TE, cited from earlier work
# M2(4) and (5)M3+TE = biological target: T1, M2(4) and (5)M3+TE (Saccharopolyspora erythraea, UniProt Q03131+Q03133, A1559G/A1612M/A1613S/A1621R/A1638S/A1707S/A1714P/A1717D/A1741R/A1766S/A1884G/A1933P/A1935T/A1951R/A1969R/A1973H/A1979Q/A2007V/A2008V/A2011V/A2018D/A2064V/A2138S/D1597P/D1620G/DEL1744-1744/DEL1923-1924/DEL1955-1967/E1628D/E1873D/E1883D/E1925V/E1947G/E1993A/E2004D/F1591L/G1618A/G1705A/G1739A/G1878E/G1927Q/G1930R/G1977A/G1990A/G1997H/G2038E/G2099R/H1599E/H1992T/I1756V/INS1626G/INS1975[…]/K1779R/K2139R/L1590A/L1610V/L1858V/L1941V/L1981F/L1987V/L1995A/L2136R/L2141V/L2144V/N1593S/N1855E/N1936G/P1725G/P1740R/P1870G/P1887E/P1889S/P1982E/Q1619T/Q1732V/Q1746R/Q1994E/Q1998R/Q2070P/R1983E/R1996V/S1600T/S1627V/S1636T/S1637A/S1670T/S1886R/S1937V/S1972D/S2041P/S2089A/S2104V/T1762S/T1948A/T1968G/T1976R/T2012V/T2015S/V1583A/V1601L/V1622P/V1623R/V1640A/V1644I/V1655L/V1708P/V1728S/V1730F/V1851L/V1879I/V1929R/V1931M/V2006A/V2021S/V2103A/V2124A/V2131M/Y1614H); experiment: Inhibition of tetraketide production by synthetic peptide, M4-M5 linker pair; assay type: biochemical; conditions: M2(4) 0.5 μM and (5)M3+TE 1.0 μM, peptide concentrations up to 100 μM
# T1 construct: Plasmid pST179 encodes a derivative of M2 containing the C-terminal linker of DEBS module 4 (M4); made in house; host or cells: E. coli BL21(DE3) with B. subtilis sfp; pET-21c
# Protocol: (§2) Inhibition of Tetraketide Production. The ability of the synthetic peptide to inhibit the transfer reaction, and thus the production of tetraketide, was tested under the same reaction conditions described for the two module coincubations. The concentrations of M2 and M3+TE were both 1.0 μM, and the concentrations of M2(4) and (5)M3+TE were 0.5 and 1.0 μM, respectively. The only difference was the addition of the peptide at concentrations ranging from 1 to 100 μM to the assay containing M2 and M3+TE [or alternatively M2(4) and (5)M3+TE]. For greater accuracy, each inhibition assay was performed side by side with a control lacking inhibitor. The effect of the inhibitor was thus determined by dividing the inhibited rate by the control rate.
# [5] = system: individually assayed modules, including M3+TE; experiment: Effect of synthetic peptide on individually assayed modules; assay type: biochemical
# Protocol: In Vitro Polyketide Production Assays of individual modules contained 1.0 μM protein, 1-10 mM N-acetylcysteamine thioester of the “natural” (2S,3R)-2-methyl-3-hydroxypentanoic acid diketide (NDK) (1), 4 mM NADPH, 440 mM sodium phosphate, 1 mM EDTA, 2.5 mM dithiothreitol (DTT), and 20% w/v glycerol, pH 7.2, in 80 μL. Reactions with M2 or M2(4) included 0.3 mM ^14C-methylmalonyl-CoA (specific activity adjusted to 10.4 mCi/mmol), and those with M3+TE or (5)M3+TE included 0.5 mM ^14C-methylmalonyl-CoA (specific activity reduced to 1.1 mCi/mmol). [M2(4) refers to a derivative of M2 in which the C-terminal linker has been replaced with its counterpart from module 4, whereas (5)M3 refers to a derivative of M3 in which the N-terminal linker has been replaced with its counterpart from module 5 (see FIG. 4).] Both concentrations of methylmalonyl-CoA were saturating, but different concentrations were needed due to the disparate rates of turnover between the modules with and without the thioesterase. The reaction mixtures were preincubated to 30° C. and started with the addition of the methylmalonyl-CoA. […] Product formation was quantified by comparison with standards of the labeled methylmalonyl-CoA. […]
# Inhibition of Tetraketide Production. […] The effect of the inhibitor was thus determined by dividing the inhibited rate by the control rate.
# M2 and M3+TE = biological target: T2, M2 and M3+TE (Saccharopolyspora erythraea, UniProt Q03131); experiment: Inhibition of tetraketide production by synthetic peptide, M2-M3 linker pair; assay type: biochemical; conditions: M2 and M3+TE both 1.0 μM, peptide 1 to 100 μM
# T2 construct: Plasmid pBP19 contains module 2 of DEBS (M2) and is a derivative of pRSG64; made in house; host or cells: E. coli BL21(DE3) with B. subtilis sfp; pET-21c
# Protocol: as §2
# [6] = diketide to triketide, cell-free
# [7] = listed as N-terminal linker of module 3
# [8] = listed as synthetic peptide mimic of the N-terminal linker of M3
substance,measurement,setting,value
M5+TE: DEBS module 5 with its natural N-terminal linker fused to thioesterase (pRSG46),Km,diketide thioester; [6],4.7 ± 0.4 mM
same,kcat × 100,diketide thioester; [6],7.5 ± 0.7 min^−1
same,Triketide Formed,[1],Yes
"ERL−M2+TE: module 2+TE with the first 39 amino acids from (M5+TE), N-terminal interpolypeptide linker (pRSG64)",Km,diketide thioester; [6],4.6 ± 0.4 mM
same,kcat × 100,diketide thioester; [6],8 ± 0.6 min^−1
same,Triketide Formed,[1],Yes
M2(4): derivative of M2 containing the C-terminal linker of DEBS module 4 (pST179),kcat of tetraketide lactone 2 synthesis,[2],0.0123 ± 0.001 s⁻¹ and 0.0123 s⁻¹
same,kcat,[3],~0.0005 s⁻¹
DEBS1: first protein of 6-deoxyerythronolide B synthase: loading module and extender modules 1 and 2,Kd,"[4]; Gokhale et al. 1999, read-out: KD (previously reported value)",2.6 µM
same,rate of formation of the same tetraketide (earlier measurement),[4]; Pieper et al. 1997,0.23 min⁻¹
"ERL−M6+TE: module 6+TE with the first 39 amino acids from (M5+TE), N-terminal interpolypeptide linker (pRSG54)",Km,diketide thioester; [6],4.3 ± 0.4 mM
same,kcat × 100,diketide thioester; [6],9.5 ± 0.6 min^−1
same,Km,diketide thioester; −NADPH,4.1 ± 0.4 mM
same,kcat × 100,diketide thioester; −NADPH,4.5 ± 0.7 min^−1
same,Triketide Formed,[1],Yes
H2N-MTDSEKVAEYLRRATLDLRAARQRIRELESD-amide (H-MTDSEKVAEYLRRATLDLRAARQRIRELESD-NH2) [M3 N-term],inhibition of tetraketide production,M2(4) and (5)M3+TE; [7],No inhibitory effect
same,inhibition of tetraketide production,M2(4) and (5)M3+TE; [8],no such effect
same,inhibitory effect upon individually assayed modules,[5],no inhibitory effect
same,inhibition of tetraketide production,M2 and M3+TE; [7],inhibit the formation of 2 in the presence of M2 and M3+TE in a concentration-dependent manner
same,inhibition of tetraketide production,M2 and M3+TE; [8],lowered the overall rate of tetraketide production in a dose-dependent fashion
